Biological target: Smlt3024 (Stenotrophomonas maltophilia K279a) (UniProt B2FJJ5)
Assay: SEC-MALS; Superdex 200 10/300 GL coupled to a Wyatt MALS detector; isolated proteins and their mixture analysed, peaks checked by SDS-PAGE; dn/dc = 0.185 mL/g

Substance: Smlt3025_(86-333) (domain or fragment)
- stoichiometry N (Smlt3024:Smlt3025 (86-333) ratio): 1

Reference: PMC6759196
